The series has as its target c-KIT extracellular domain (soluble KIT) (UniProt P10721-2 26-516). The experiment in a line: square wave voltammetry.

B1: Fc-labeled scrambled control oligo (Au/Fc-control) (ssDNA)
DNA: TGACGGGAGACTTAAAACGCAAGGGGTGCAGCTATCGCGGAGGCCAAGGGTTCAAGTCGACGGGTAGCTAGGTTGGA
modifications: 5'-disulfide (thiol after TCEP, on gold electrode); 3'-NH2 coupled to ferrocene carboxylic acid
Consider B1, for which the binding result is on record as “no binding”.

For the origin of these results see paper doi:10.1101/2020.12.04.20244186.
